Measured values published in the DeepSol protein solubility set.

Experiment: soluble on expression in E. coli; label from the status in PepcDB or PDB records

| Sequence | soluble on expression in E. coli |
| --- | --- |
| MISWEIEELDREIGKIKKHSLILIHEEDASSRGKDILFYILSRKLKSDNLVGMFSISYPLQLIIRILSRFGVDVIKYLENHRLAIVDTFGSFHGIKATMPGVWYLEGMLSSETLPIKYAKAVEDHKKVWMDLNLFEGRELYGFAISMSGYLEVFTPEETLRYLETSAEVRYGHPAYKKYPRGTNFWLWEGVKDKRVLLSVYRRADYVLKTRSSLGENGIKRELLVIKTPKPIEELVRFEYEFKGNEPKLRRVD | soluble |
| MISYQKAKLAKNLAISTASKWLFVHSSTGGSATNLSIAQYATLINGIQSAIKCQVILTAGKGERERAVELAEKLTDQNVVIYDKNDGLADFTRSLACADLFIAGSTGPLHIAGGLNIPTVGFYPSRLSATPRRWRPINQVDKHLAFCPPSGKQCEMDLTLISIEQALTSVIPFIKKMWQLSLEHHHHHH | not soluble |
| MITLFQFPAAFNVPNASPYCLKLETWLRLAGLEYQVKVVSDPRKAPKGKLPYVRIEGEAIGDSEIVIRTLGERYGVTLDAGLDARGKGWARAITRLCDEHLYYLMLYFRWFDEDSWRVLKPVFFGSLPFGVRDAVAWAMRRKVRATLRAQGLGVHGRDELLAFARDDLDALDGLLGQVPYYGGEHPCSADAAAYGILANLIEATLDTPLSHVARGYPRLVAYCERMRERVWSELEHHHHHH | soluble |
| MITLWENRDKWEEDSNLHGLLLTIIKNKALNYLAHLQVRLRAEEEINSHSQRELDLRISTLEACEPDAIFDSEIQHIVQKALKRMPNQSRQIFILSRYQNTPNKKIAEQLGISVKSVEFHITKALKILRTELKDYLVSILF | not soluble |
| MITSDSHMHTRFSTDSDADIRDMIESALKKGLQSICITDHIDKDYPFHEDTGAEAFLVDLDEYFPKLAEWKEAYAEKIQIRRGIELGLQPHLAGFYEELTNQYPFDFVIGSVHVVHGMDPYYGEIFEGRSDEEVYKETFLATLENLDAVSSFDVLGHLDYVVRYGKCQARQYSYKKYAQEIDEILKKVIAMGKGIELNTAGWKYGLAFCHPHPEILCRYKELGGEIITVGSDAHKPEHVAYDFQKAADVLKACGFKYYTEFQDRKPIFKQLL | soluble |
| MITTGKVWKFGDDISTDEITPGRYNLTKDPKELAKIAFIEVRPDFARNVRPGDVVVAGKNFGIGSSRESAALALKALGIAGVIAESFGRIFYRNAINIGIPLLLGKTEGLKDGDLVTVNWETGEVRKGDEILMFEPLEDFLLEIVREGGILEYIRRRGDLCIR | soluble |
| MITTRTAKQCGQADYGWLQARYTFSFGHYFDPTLLGYASLRVLNQEVLAPGASFQPRTYPKVDILNLILDGEAEYRDSDGNHVQAKAGEALLLAAQPGISYSEHNISKVKPLTRMQLWLDACPERENTLVQKIPLLAAQQQLLASPDGEQNSLQLRQQVWVHHITLEKGESLNFQLHGPRAYLQSIHGTFHAMTHNEEREALTCGDGAFIRDEPNITLVADTPLRALLVDLPV | not soluble |
| MIVEPMTKPRKPTVQRCQSFFTNGANHFYCKKSTHDGGRTHNLLIRSQTRCHYATRATVCWKFSIINKYIPTLANITITTLRKLYKRFIDRESLFLIFFRKDEHIVQNIIN | soluble |
| MIVGAGPAGIRAAAALADAGLHPVVIDEGNRAGGQIYRRPPDGFVRTPGQLYGSEAAKARALHAVFDRLTADGRLTHCAGSSVIAVQTGRLHVLGEGGVQVIFYDRLILATGASDRVAPVPGWQSAGVYSLGAAQIALKAQGVALGRRIVLMGSGPLLTLVGAQLIKAGADVAAVLDTSPWRQQMRGLWKLAARPLVALRGLALRARLGGRYHAGVSLEKIEADGQGVTAMRWRDAGGRQRLTPCDTIGMGWHLRAETHLADLAGCAFTYDEQWRQWLPKTDRMGRAGNGVYLAGDGVRLLGADGAEIAGRLAAAACLADLGFPAPTNAADLRELTRLERFAHGLVCAFPWPAAMVRALPDAAIVCRCENVTAGAVRDSVDLGGGEANRVKSLSRLGMGRCQGRYCHLAAVELAAAQSGCTPDAVGRFRGQAPARPAPIGAFLPEGLEHHHHHH | not soluble |
| MIVGMSVSLLRGRTVRRVLSVLVVAGLLGAGVTGCSNDAGAKTENTVDASPTPTNTPTDGDGDSAEEPAQDTPAEPEQRPVPEEPEAMKTGDKAGAIAAATFFVEVIEYSLHSNNPELLEKYSYENCTNCNNLIETIAYRSKNGYESLETSYVINSVGTPSYVGTNHIIWGVPMSITSKEQLNRKESEQIETNKLTIYVTYENGEWDLTSIDPDGGQSTK | not soluble |
| MIVNKPQFDENELGEGTAVQVTSGNPFGRPNYSNNKHDWNAVVVEFSPLMISVAGYNKEEHDRVETMNITIDSIVKEHVTLKKLVVELPKIQCEAGPEND | not soluble |
| MIVSAIAANALLESVTKFHCGVIYDYSTAEYVSYRPSDFGAYLDALEAEVARGGLIVFHNGHKYDVPALTKLAKLQLNREFHLPRENCIDTLVLSRLIHSNLKDTDMGLLRSGKLPGKRFGSHALEAWGYRLGEMKGEYKDDFKRMLEEQGEEYVDGMEWWNFNEEMMDYNVQDVVVTKALLEKLLSDKHYFPPEIDFTDVGYTTFWSESLEAVDIEHRAAWLLAKQERNGFPFDTKAIEELYVELAARRSELLRKLTETFGSWYQPKGGTEMFCHPRTGKPLPKYPRIKTPKVGGIFKKPKNKAQREGREPCELDTREYVAGAPYTPVEHVVFNPSSRDHIQKKLQEAGWVPTKYTDKGAPVVDDEVLEGVRVDDPEKQAAIDLIKEYLMIQKRIGQSAEGDKAWLRYVAEDGKIHGSVNPNGAVTGRATHAFPNLAQIPGVRSPYGEQCRAAFGAEHHLDGITGKPWVQAGIDASGLELRCLAHFMARFDNGEYAHEILNGDIHTKNQIAAELPTRDNAKTFIYGFLYGAGDEKIGQIVGAGKERGKELKKKFLENTPAIAALRESIQQTLVESSQWVAGEQQVKWKRRWIKGLDGRKVHVRSPHAALNTLLQSAGALICKLWIIKTEEMLVEKGLKHGWDGDFAYMAWVHDEIQVGCRTEEIAQVVIETAQEAMRWVGDHWNFRCLLDTEGKMGPNWAICH | soluble |
| MIVVFDAQCLLCSGFARFLLKHDRRGVLRFASMQGETGRALLRAADVDPEDVDTVLFVRDGRAWRESAAALRILHALGWPWRLAWLGWAVPLPIRDALYRCVARNRYRWFGCSDTCILPPPGAAQRFLDLEHHHHHH | not soluble |
| MIWIINISWMHSIFDFISMLINRNHFSKWSISNGRHVSFCNWVFTYTNICSKSFNYRRRSCFKNISISYPFCRIHSIFNKFFTYFIISNCSCPTHRLFCIWRSLFTRSLEHHHHHH | not soluble |
| MIYIVGIGPGSRDYVTEKAFDTVETSDFVLGSKRSLEIFEINGERVELTVNLKNELYEFLKNYKNSDSKKKVSILSTGDPCFSGLLKTIFSFDFIEQDDFEVVPGI | not soluble |
| MIYSRSKLPSEGEILIATVKQVFDYGSYVSLDEYGGLQAFLPWSEVSSKWVKNIRDVLKENRKVIVKVIRVDRRKGTVDVSLKKVTDDERRKKNLQWKKIQRLDKILELVSQKLKLSEKDAWEQVAWKLEAKYGDPITAIEKAVKEGEKILIDAGVPEIWVKPLLEEASKHAEERKVKMSGLITVRTNEPLGVEKIKEVISKALENIEQDYESLLNIKIYTIGAPRYRVDVVGTNPKEASEALNQIISNLIKIGKEENVDISVVKK | soluble |
| MKAETTTGVEELLNELVGRAAGEVGLILFSLGIEGEFTDDQLSLELGIEINEIRKALFALYEIGLADYVRRRDDETGWMEYYWRINYDKALDVLKRELEKTAKKLREKIEAETSTIYYICPNMCVKVSYNDAMELNFTCPRCGAMLDYLDCSKAIEKIEEEVRRIEEILESLDKNSG | not soluble |
| MKALITAADIKKASETPEKILTISEADLITPAARDAAKELGVQITAHPVSLPPTVAPSPAFSPASPLDPALVSRIIEEVMVCLNRSGSPAQPQKEADPGGLRIVKGNSLILEDFATGNPRDQIKIKELFNKKECPLYSAGIMALDKTSYSLTPARDELNYIIEGTLECCIDNRCYTAQAGDTLYIPAQAKIILTAADKVKLFYVC | not soluble |
| MKALSKLKAEEGIWMTDVPVPELGHNDLLIKIRKTAICGTDVHIYNWDEWSQKTIPVPMVVGHEYVGEVVGIGQEVKGFKIGDRVSGEGHITCGHCRNCRGGRTHLCRNTIGVGVNRPGCFAEYLVIPAFNAFKIPDNISDDLAAIFDPFGNAVHTALSFDLVGEDVLVSGAGPIGIMAAAVAKHVGARNVVITDVNEYRLELARKMGITRAVNVAKENLNDVMAELGMTEGFDVGLEMSGAPPAFRTMLDTMNHGGRIAMLGIPPSDMSIDWTKVIFKGLFIKGIYGREMFETWYKMAALIQSGLDLSPIITHRFSIDDFQKGFDAMRSGQSGKVILSWD | soluble |
| MKAPLVSIIIPVWNLWELTCACLDSIRAHTPGNAVEVIVVDNGSDDTTATALAPTGEGLFGARFRRIRLETNRGFAVACNLGAAKAQGTYLLLLNNDTVLSPGWLPPLLREFDDEPRTGAAGPLLVYPDSGRVQHCGIAFAPTLQTEHLYANFPATHPAVRARRTLQAITGAAMLLPTALFRQCGGFHEGYKNGCEDLELCCRIREQGLRLAVVPESLVAHHESRTPGRKEHDAANATLLNRRCSGCFGPDLHRHALRDGFAIALTPWLDTYLTLPPGREAALTREHITDFDPGRCWETLQGEPLWHGGYEMLCSILDEAGRHAESAGVRLLQAGFFPTLPGFRQLARSAALSGNDELARQAAEKMQHIGGILEDPEPLVTRARGLVRWARRAGEPAVEALYTGWLTDIGLSADDLEHHHHHH | soluble |
| MKAVGFLLLLTILTLAYAKKSGDVTELQIGVKYKPQKCDLQAHKGDKIKVHYRGKLTDGTVFDSSFERGDPIEFELGTGQVIPGWDQGLLGACVGEKRKLKIPSKLGYGDNGSPPKIPGGATLIFDTELVAVNGEPSSEAKSKNEL | soluble |
| MKAVTTSPSDPPDPFDPLDPVDPLASTKPEVDVVLPCLDEADALPWVLARIPPGWRALVVDNGSTDGSAEIARRLGATVVPETRRGFGAACHAGLTAATADIVCFCDCDGSLDPSLLVPFVREVRDGAADLVLGRRRPHGRGAWPAHARAGNLALARMLRRRTGLRLHDLGPLRAARREPLLALGLTDRRSGYPLQMVVRAADAGWRIAEHDVPYLPRTGVSKVTGTWRGTWQAVRDMSRVLAEPAQDGPPESGSLSSSQGGSSQLEHHHHHH | not soluble |
| MKCSNEKVVNQEQSYESMDKFLDGVQEVAYIHSNQNVIGSSKAENHMSRWAAHDVFELKQFSQLPANIAVCSSKTYKEKVDADTLPHTKKGQQPSEGSISLPLYISNPVNQKKKKVYHTNQTTFIIGETPKGIRRKQFEEMASYFNSSSVNEFAKHITNATSEERQKMLRDFYASQYPEVKEFFVDSVSQFNNSSFEKGEQRTRKKSDKRESLIKPRLSDSETLSFKDSTNKISQVCSLKTYKRKSVKFQNHISYREEVFFNDAETKKSPVSSTQEIDSGKNSQASEDTVTSRSLNSESETRERRLENTMKDQQDLTRTGISRKEPLLKLENKKIENPVLENTSVISLLGDTSILDDLFKSHGNSPTQLPKKVLSGPMEKAKQRPKDFWDILNEQNDESLSKLTDLAVIETLCEKAPLAAPFKRREEPATSLWKSNEKFLWKKFSPSDTDENATNTQSTT | not soluble |
| MKDKVYKRPVSILVVIYAQDTKRVLMLQRRDDPDFWQSVTGSVEEGETAPQAAMREVKEEVTIDVVAEQLTLIDCQRTVEFEIFSHLRHRYAPGVTRNTESWFCLALPHERQIVFTEHLAYKWLDAPAAAALTKSWSNRQAIEQFVINAA | soluble |
